The test has as its target T1, calmodulin (CaM), human calmodulin-1 (human, UniProt P0DP23 1-149).
T1 construct: also called CaM-NHS-Red
Put plainly: MST; Red-NHS-labelled CaM kept constant (466 nM in the results, 50 nM in the methods), (myr)MAPP titrated; 50 mM Tris-HCl, 100 mM NaCl, 0.05% Tween 20, pH 7.4, with 20 mM CaCl2; 25 °C; triplicates. The conditions noted are these: both partners purified.

B1: myristoylated M-PMV MA protein extended by 18 amino acids of the downstream phosphoprotein region of Gag (myrMAPP) (domain or fragment)
chain: GQELSQHERYVEQLKQALKTRGVKVKYADLLKFFDFVKDTCPWFPQEGTIDIKRWRRVGDCFQDYYNTFGPEKVPVTAFSYWNLIKELIDKKEVNPQVMAAVAQTEEILKSNSQTDL
modifications: N-terminal myristoyl; uniformly 15N-labelled in some NMR and mixed-isotope XL-MS samples
notes: source: E. coli BL21 (DE3), co-transformed with a plasmid coding yeast N-myristoyl transferase, purified (Ni-NTA agarose)
Consider B1, for which the Kd (usually the free concentration of one partner at which half of the binding sites on the other are occupied at equilibrium, for simple one-to-one binding) came out at 4.2 µM.

B2: non-myristoylated M-PMV MA protein extended by 18 amino acids of the downstream phosphoprotein region of Gag (MAPP) (domain or fragment)
chain: B1 chain
As for B2, the Kd stood at 33 µM.

For the origin of these results see publication PMC12858339 (The Journal of Biological Chemistry, 2025).
